Article PMC2836971

Molecular target: Myc-tagged Emi2-C RL^+ mutant (only the RL motif intact; D-box and ZBR mutated) (Xenopus) (UniProt Q8AXF4)
Experiment: co-IP

Cdc27 (APC/C core subunit), endogenous in Xenopus CSF extracts (natural protein)
percent less strongly associated with Cdc27 than the WT: 50%
